From paper PMC13354580 (Nature Communications, 2026)

Molecular target: fluorescent Aβ (1–42) (fluorophore label; fluorophore and position not stated)
Experiment: fluorescence polarisation

B1: ABAD Y168G mutant, purified protein (enzyme, human)
chain: MAAACRSVKGLVAVITGGASGLGLATAERLVGQGASAVLLDLPNSGGEAQAKKLGNNCVFAPADVTSEKDVQTALALAKGKFGRVDVAVNCAGIAVASKTYNLKKGQTHTLEDFQRVLDVNLMGTFNVIRLVAGEMGQNEPDQGGQRGVIINTASVAAFEGQVGQAAGSASKGGIVGMTLPIARDLAPIGIRVMTIAPGLFGTPLLTSLPEKVCNFLASQVPFPSRLGDPAEYAHLVQAIIENPFLNGEVIRLDGAIRMQP
fold reduction in the calculated Kd against WT: ~11 fold
